Reference: publication PMC6590076

Target: 14-3-3β (UniProt P31946)
Assay: in vitro pull-down, immobilized phosphoprotein

Row | binding against the reference (reference: FOXO3A with Ser413 (supD tRNA), sites S413) | binding against the reference (reference: FOXO3A with Ser253 (supD tRNA), sites S253) | Substance
1 | stronger |  | FOXO3A (from UniProt O43524) FOXO3A with pSer413 (SepOTSλ)
2 |  | stronger | FOXO3A (from UniProt O43524) FOXO3A with pSer253 (SepOTSλ)
